Test results published in patent US20130071381A1 (Takeda / Millennium, published 2013).
Values joined by “and” are separate entries in the source; they are usually repeats but may differ in a detail not shown here. Equal entries are not always repeated.

Columns and labels:
[1] = molecular target: T1, human CC-chemokine receptor 2 (CCR2), endogenous on THP-1 cells, THP-1 membranes and human blood cells (human, UniProt P41597 1-374); assay: competition with 0.1 nM [125I]MCP-1 on THP-1 cell membranes, filtration and scintillation counting
T1 construct: whole, on cells; The isoform is not specified for THP-1 cells or PBMC; also called CKR-2; MCP-1RA
Experimental: FIG. 4 illustrates that mAb 1D9 inhibits [¹²⁵I]MCP-1 binding to THP-1 cell membranes. 3.0 μg of THP-1 membrane protein was incubated with 0.1 nM [¹²⁵I]MCP-1 in the presence of various concentrations of 1D9 or the isotype-matched anti-CXCR3 antibody 1C6. The amount of bound tracer was determined by separation of free from bound by filtration and scintillation counting. The data was analyzed to determine the IC₅₀ value by non-linear regression using a 4-parameter logistic equation with KaleidaGraph software.
MCP-1 binding was performed in a final volume of 0.1 ml of 50 mM Hepes pH 7.4, 1 mM CaCl₂, 5 mM MgCl₂, 0.02% sodium azide, 0.5% BSA (HBB), containing either 2.5 μg THP-1 membrane protein or 500,000 PBMC and 0.1 nM of [¹²⁵I]-MCP-1. Competition binding experiments were performed by including variable concentrations of unlabeled MCP-1, 1D9 antibody, or a negative control IgG2a. Nonspecific binding was determined following the addition of a 2500-fold excess of unlabeled MCP-1. […] The filters were washed in HBB further supplemented with 0.5 M NaCl, dried, and the amount of bound radioactivity determined by liquid scintillation counting. mAb 1D9 inhibits [¹²⁵I]MCP-1 binding to THP-1 cell membranes with an IC₅₀ of about 0.004 μg/ml (approximately 0.02 nM; FIG. 4) and to fresh PBMC with an IC₅₀ of 0.04 μg/ml (approximately 0.2 nM; FIG. 5).

[2] = molecular target: T2, CCR5 expressed on L1/2 transfectants (UniProt P51681 1-352, limits assumed); assay: flow cytometry on L1/2 transfectants, hybridoma supernatant
T2 construct: whole, on cells; also called CCR5 transfectants
Experimental: (§1) For the staining of cultured transfectant cell lines 0.5×10⁶ cells in 50 μl were resuspended in PBS+1% FCS in a 96 well polystyrene V-bottom plate. 50 μl of primary antibody supernatants or HT medium (negative control) were added, and the samples were incubated at 4° C. for 30 min. 100 μl of PBS were added and the cells were pelleted by centrifugation and washed once with PBS. The pellet was resuspended in 100 μl PBS+1% FCS containing FITC-conjugated goat anti-mouse IgG antibody (a 1:250 dilution) and incubated for thirty minutes at […] in the dark. The cells were washed twice with PBS, resuspended in PBS, and analyzed by flow cytometry with a FacScan cytometer using the CellQuest software (Becton-Dickenson) Cells were fixed with PBS/1% formaldehyde if they were not to be analyzed the same day. Monoclonal antibodies 1D9 and 8G2 stain CCR2 transfectants but not CCR1 or CCR5 transfectants (FIGS. 1A-10).

[3] = molecular target: T3, CCR1 expressed on L1/2 transfectants (UniProt P32246 1-355, limits assumed); assay: as above
T3 construct: whole, on cells; also called CCR1 transfectants
T3 sequence (looked up): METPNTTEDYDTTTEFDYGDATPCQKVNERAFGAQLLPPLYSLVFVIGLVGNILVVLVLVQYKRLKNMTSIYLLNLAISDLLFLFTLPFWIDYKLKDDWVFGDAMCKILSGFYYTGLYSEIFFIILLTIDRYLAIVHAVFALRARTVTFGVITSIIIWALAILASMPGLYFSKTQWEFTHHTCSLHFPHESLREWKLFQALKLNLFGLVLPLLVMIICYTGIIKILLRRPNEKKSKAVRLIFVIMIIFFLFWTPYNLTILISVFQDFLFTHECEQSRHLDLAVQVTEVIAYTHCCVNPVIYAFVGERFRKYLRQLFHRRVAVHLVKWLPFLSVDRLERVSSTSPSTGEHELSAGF
Experimental: as §1

[4] = molecular target: T1, human CC-chemokine receptor 2 (CCR2), …; assay: competition with 0.1 nM [125I]MCP-1 on fresh PBMC, filtration and scintillation counting
Experimental: MCP-1 binding was performed in a final volume of 0.1 ml of 50 mM Hepes pH 7.4, 1 mM CaCl₂, 5 mM MgCl₂, 0.02% sodium azide, 0.5% BSA (HBB), containing either 2.5 μg THP-1 membrane protein or 500,000 PBMC and 0.1 nM of [¹²⁵I]-MCP-1. Competition binding experiments were performed by including variable concentrations of unlabeled MCP-1, 1D9 antibody, or a negative control IgG2a. Nonspecific binding was determined following the addition of a 2500-fold excess of unlabeled MCP-1. Samples were incubated for 60 minutes at room temperature, and bound and free tracer were separated by filtration through 96-well GF/B filterplates presoaked in 0.3% polyethyleneimine. The filters were washed in HBB further supplemented with 0.5 M NaCl, dried, and the amount of bound radioactivity determined by liquid scintillation counting. mAb 1D9 inhibits [¹²⁵I]MCP-1 binding to THP-1 cell membranes with an IC₅₀ of about 0.004 μg/ml (approximately 0.02 nM; FIG. 4) and to fresh PBMC with an IC₅₀ of 0.04 μg/ml (approximately 0.2 nM; FIG. 5).

T1 sequence (P41597 whole entry, canonical isoform): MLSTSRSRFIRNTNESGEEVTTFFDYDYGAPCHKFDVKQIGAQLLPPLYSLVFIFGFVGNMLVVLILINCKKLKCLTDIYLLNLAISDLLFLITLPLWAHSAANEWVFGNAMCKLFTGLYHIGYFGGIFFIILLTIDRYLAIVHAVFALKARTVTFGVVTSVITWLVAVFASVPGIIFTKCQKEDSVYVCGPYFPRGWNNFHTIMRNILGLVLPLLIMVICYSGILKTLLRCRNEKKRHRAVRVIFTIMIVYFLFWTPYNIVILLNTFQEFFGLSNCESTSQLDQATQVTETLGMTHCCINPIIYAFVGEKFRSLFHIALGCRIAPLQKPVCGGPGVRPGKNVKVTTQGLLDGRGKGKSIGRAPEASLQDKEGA
T2 sequence (P51681 whole entry): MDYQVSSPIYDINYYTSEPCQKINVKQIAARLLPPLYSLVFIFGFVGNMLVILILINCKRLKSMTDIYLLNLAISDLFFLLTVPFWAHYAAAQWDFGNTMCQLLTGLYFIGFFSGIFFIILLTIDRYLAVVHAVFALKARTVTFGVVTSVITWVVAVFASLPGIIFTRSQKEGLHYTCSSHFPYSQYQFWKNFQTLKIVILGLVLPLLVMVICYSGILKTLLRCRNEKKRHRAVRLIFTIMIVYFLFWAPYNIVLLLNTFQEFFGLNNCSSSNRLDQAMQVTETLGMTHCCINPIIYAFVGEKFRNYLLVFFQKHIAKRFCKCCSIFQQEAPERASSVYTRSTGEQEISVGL

IC50 [1]: ~0.004 µg/mL and ~0.02 nM
binding result [2]: no binding
binding result [3]: no binding
IC50 [4]: 0.04 µg/mL and ~0.2 nM
B1: murine monoclonal antibody LS132.1D9 (antibody, V domains shown)
VH: EVQLVESGGGLVQPKGSLKLSCAASGFSFNAYAMNWVRQAPGKGLEWVARIRTKNNNYATYYADSVKDRYTISRDDSESMLFLQMNNLKTEDTAMYYCVTFYGNGVWGTGTTVTVSS
VL: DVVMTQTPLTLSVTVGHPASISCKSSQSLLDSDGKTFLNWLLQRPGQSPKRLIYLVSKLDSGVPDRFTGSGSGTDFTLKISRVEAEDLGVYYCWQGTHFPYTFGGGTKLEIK
notes: Whole murine monoclonal antibody from hybridoma ATCC HB-12549, with a kappa light chain; The controls are called isotype-matched or murine IgG2a, which implies IgG2a; It was used as hybridoma supernatant in the FACS staining; also called mAb 1D9; mus-1D9
